From US20110172126A1, “LIBRARIES OF PEPTIDE CONJUGATES AND METHODS FOR MAKING THEM” (XENOME LTD, priority 2008, published 2011)
*1 amine or outer side, *2 acyl side, *3 side chain or, on linkers, in order; H or OH if unused. Bridges are numbered along the chain shown (N, C = ends). Where no end group is shown, it is not given here. [ ]: non-standard residue; d: D form. The star is where a group is joined. 12302 = turn inducer derived from (2S,4R)-Fmoc-4-amino-1-BOC-pyrrolidine-2-carboxylic acid, O=C([C@@H]1C[C@@H](N[*:1])CN1[*:3])[*:2]; Isovaleryl = CC(C)CC(=O)*

Experiments:
Format in all cases: binding
[1] = target: T1, human delta2 Opioid Receptor (hδ2OR) (Homo sapiens, UniProt P41143); assay: hδ2OR assay: competitive inhibition of 3H-Naltrindole from membrane expressing hδ2OR; settings: single concentration 10 μM
T1 construct: purchased Perkin Elmer Life Sciences RPNQ001
Experimental: A homogeneous assay was used to determine the ability of compounds to act as inhibitors of the hδ2OR as measured by competitive inhibition of ^3H-Naltrindole from membrane expressing hδ2OR.
Total assay volume was 80 μL (20 μL competing ligand, 20 μL SPA beads, 20 μL, membrane and 20 μL tritiated ligand). Assay buffer used was Tris HCl (50 mM, pH 7.4), MgCl2 (5 mM) and BSA (0.1%). Peptides were initially screened at a single concentration of 10 μM. Confirmation of any hits was performed using full dose response of the peptide using various concentrations (10^−4 to 10^−11M) or control ligand (Naltriben). The competing ligands were added to the assay plate followed by SPA beads at a concentration of 100 μg/well (GE Healthcare, Amersham Cat. #FBB001) and […] (Perkin Elmer Life Sciences Cat #RPNQ001). This was followed by 1.6 nM […] [for a final concentration 0.4 nM] (Perkin Elmer Cat #NET1065), after which the plate was sealed and incubated at RT for 1 hr with shaking. The plate was then counted on a Wallac Microbeta instrument.

[2] = target: T2, rat sodium channel 1.2 (rNav1.2) (Rattus norvegicus, UniProt P04775); assay: rat Nav1.2 channel assay: competitive inhibition of 125H-TIIIA from rat brain homogenate; settings: single concentration 10 μM
T2 construct: from tissue; host or cells: rat brain homogenate / rat brain membrane
Experimental: A homogeneous assay was used to determine the ability of compounds to act as inhibitors of the rat sodium channel 1.2 (rNav1.2) as measured by competitive inhibition of ^125H-TIIIA from rat brain homogenate.
Total assay volume was 80 μL (20 μL competing ligand, 20 μL, SPA beads, 20 μL rat brain homogenate and 20 μL iodinated ligand). Assay buffer used was HEPES (20 mM pH7.2), MgCl2 (75 mM), EDTA (0.2 mM), EGTA (0.2 mM), BSA (0.1%) and 2% diluted protease inhibitors (Roche cat #1826145). Peptides were initially screened at a single concentration of 10 μM. […] The competing ligands were added to the assay plate followed by Flashblue GPCR scintillating beads at a concentration of 100 μg/well (Perkin Elmer cat #FBB001), rat brain membrane and 30 pM ^125H-TIIIA. After the addition of all reagents the plate was sealed and incubated at RT for 1 h with shaking. The plate was then counted on a Wallac Microbeta instrument.

[3] = target: T3, human norepinephrine transporter (hNET) (Homo sapiens, UniProt P23975); settings: single concentration 10 μM, 3H-nisoxetine displacement
T3 construct: purchased Perkin Elmer Life Sciences RBHNETM400UA
T3 sequence (P23975 whole entry): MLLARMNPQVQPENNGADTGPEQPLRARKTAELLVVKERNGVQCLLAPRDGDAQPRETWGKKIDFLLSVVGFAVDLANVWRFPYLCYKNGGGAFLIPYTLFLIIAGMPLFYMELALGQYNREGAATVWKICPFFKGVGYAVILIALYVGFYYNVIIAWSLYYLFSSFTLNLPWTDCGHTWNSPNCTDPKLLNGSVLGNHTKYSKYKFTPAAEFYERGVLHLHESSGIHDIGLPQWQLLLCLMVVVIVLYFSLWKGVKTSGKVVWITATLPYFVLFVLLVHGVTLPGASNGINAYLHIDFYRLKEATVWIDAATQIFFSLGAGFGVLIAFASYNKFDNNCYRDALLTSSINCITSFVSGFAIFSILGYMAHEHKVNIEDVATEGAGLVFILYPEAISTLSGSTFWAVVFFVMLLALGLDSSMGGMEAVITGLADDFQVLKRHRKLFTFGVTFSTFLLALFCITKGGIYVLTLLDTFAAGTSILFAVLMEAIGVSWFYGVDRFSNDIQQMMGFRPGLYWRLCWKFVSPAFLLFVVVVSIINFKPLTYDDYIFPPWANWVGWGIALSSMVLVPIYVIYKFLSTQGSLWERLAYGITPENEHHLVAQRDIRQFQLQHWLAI
Experimental: The ability of compounds to act as inhibitors of the human norepinephrine transporter (hNET) was measured by competitive inhibition of ^3H-nisoxetine from membrane expressing hNET.
Total assay volume 150 μL (50 μL peptide conjugate, 50 μL tritiated compound and 50 μL membrane) with each data point performed in triplicate. Assay buffer used was TrisHCl (50 mM, pH 7.4), NaCl (120 mM) and KCl (5 mM). Peptide conjugates were initially screened at a single concentration of 10 μM. […] After the addition of the membrane the assay was incubated for 1 h at RT after which the reaction was filtered onto GF filtermats B (Perkin Elmer cat #1450-521) pretreated with 0.6% PEI using a Tomtec cell harvester and washed 3 times using wash buffer (20 mM HEPES pH 7.4, 125 mM NaCl @ 4° C.). Filtermats were then dried, placed in a filter bag, 9 mL betaplate scintillant (Perkin Elmer cat #1205-440) added and filtermats counted on a Wallac Microbeta instrument.

T1 sequence (P41143 whole entry): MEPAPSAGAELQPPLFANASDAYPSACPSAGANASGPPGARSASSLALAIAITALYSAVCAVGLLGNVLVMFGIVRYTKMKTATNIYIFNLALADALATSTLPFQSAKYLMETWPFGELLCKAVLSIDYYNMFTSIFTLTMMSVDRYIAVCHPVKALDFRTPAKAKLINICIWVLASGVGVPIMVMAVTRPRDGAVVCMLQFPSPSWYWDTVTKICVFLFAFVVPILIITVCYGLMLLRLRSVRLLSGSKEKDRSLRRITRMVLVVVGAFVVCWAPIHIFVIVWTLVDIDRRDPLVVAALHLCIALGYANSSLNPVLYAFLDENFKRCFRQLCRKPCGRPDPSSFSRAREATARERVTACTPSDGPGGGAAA
T2 sequence (P04775 whole entry): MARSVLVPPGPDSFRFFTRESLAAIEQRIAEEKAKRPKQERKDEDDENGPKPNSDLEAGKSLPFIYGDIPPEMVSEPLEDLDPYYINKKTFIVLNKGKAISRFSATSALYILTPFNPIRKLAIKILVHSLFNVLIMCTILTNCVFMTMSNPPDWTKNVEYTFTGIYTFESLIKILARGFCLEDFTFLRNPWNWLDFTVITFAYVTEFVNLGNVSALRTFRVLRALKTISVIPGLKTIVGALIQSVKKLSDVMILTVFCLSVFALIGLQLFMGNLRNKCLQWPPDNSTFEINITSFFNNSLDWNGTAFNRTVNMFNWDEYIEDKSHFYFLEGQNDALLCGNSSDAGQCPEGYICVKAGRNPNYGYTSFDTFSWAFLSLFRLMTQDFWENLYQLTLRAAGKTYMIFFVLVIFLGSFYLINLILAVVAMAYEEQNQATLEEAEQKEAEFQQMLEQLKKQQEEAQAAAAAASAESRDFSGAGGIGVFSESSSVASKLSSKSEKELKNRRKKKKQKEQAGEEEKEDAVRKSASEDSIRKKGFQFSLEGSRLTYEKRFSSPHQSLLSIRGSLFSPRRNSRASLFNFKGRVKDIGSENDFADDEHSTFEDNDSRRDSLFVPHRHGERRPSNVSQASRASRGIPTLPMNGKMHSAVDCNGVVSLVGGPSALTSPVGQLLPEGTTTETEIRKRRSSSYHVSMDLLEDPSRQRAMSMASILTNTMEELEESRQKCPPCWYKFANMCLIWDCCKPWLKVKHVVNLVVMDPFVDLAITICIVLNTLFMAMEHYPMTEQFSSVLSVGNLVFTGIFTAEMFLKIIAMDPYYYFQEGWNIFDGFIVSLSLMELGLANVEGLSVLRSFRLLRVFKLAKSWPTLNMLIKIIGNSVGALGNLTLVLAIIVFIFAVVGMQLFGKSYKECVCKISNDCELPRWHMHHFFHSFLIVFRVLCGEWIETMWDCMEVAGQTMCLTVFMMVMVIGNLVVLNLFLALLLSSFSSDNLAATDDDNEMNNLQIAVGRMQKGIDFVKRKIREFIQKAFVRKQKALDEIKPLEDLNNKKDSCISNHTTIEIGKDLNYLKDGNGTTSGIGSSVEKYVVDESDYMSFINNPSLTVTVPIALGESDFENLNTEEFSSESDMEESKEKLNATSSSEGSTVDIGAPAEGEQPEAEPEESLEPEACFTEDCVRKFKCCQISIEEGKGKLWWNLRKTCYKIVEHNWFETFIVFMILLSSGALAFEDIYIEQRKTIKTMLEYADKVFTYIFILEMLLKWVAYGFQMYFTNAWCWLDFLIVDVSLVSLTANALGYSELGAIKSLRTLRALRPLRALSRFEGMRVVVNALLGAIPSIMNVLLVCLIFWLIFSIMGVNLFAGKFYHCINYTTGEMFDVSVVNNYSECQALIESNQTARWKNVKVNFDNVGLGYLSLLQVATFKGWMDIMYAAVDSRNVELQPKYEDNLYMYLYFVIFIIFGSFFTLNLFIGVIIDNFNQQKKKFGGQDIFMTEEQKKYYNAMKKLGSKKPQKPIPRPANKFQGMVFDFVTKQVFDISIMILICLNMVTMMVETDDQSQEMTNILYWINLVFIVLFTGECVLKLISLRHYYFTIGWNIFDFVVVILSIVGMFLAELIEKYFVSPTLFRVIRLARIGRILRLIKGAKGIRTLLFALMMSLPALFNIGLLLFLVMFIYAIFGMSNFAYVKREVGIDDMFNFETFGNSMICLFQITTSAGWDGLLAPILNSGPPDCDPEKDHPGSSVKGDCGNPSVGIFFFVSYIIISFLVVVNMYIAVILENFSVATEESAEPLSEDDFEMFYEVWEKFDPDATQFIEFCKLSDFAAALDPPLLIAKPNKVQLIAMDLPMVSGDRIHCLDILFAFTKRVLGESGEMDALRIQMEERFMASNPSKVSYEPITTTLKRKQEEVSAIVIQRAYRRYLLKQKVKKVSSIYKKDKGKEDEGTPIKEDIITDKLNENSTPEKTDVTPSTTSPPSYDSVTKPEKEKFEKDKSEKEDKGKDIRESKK

Substance | % inh @ 10 μM [1] [%] | % inhib @ 10 μM [2] [%] | % inhib @ 10 μM [3] [%]
47 (CF[12302](Isovaleryl)YC; disulfide 1-5 (inferred)) [compound 47] | >80 | – | –
6 (CV[H2NNH:CHNH(CH2)3CO]KC; disulfide 1-5 (inferred); not fully specified) [compound 6] | – | >70 | 94
46 (CF[12302](cyclohex‑CH2—CO)YC; disulfide 1-5 (inferred)) [compound 46] | >80 | – | –
